First the molecules themselves.
T1: Human T cell receptor on human primary T cells (human, UniProt P01848 1-140; P01850 1-176)
T1 TCR alpha (looked up): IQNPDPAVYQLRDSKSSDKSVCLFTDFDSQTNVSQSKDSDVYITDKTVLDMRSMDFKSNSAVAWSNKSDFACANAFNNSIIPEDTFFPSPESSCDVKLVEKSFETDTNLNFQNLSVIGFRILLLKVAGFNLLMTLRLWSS
T1 TCR beta (looked up): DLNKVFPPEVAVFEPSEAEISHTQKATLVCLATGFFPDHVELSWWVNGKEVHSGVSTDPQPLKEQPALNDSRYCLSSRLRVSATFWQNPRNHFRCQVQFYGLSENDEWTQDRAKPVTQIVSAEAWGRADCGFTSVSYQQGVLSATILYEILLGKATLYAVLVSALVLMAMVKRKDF

T2: Cynomolgus TCR(AEA41865/AEA41866)-zipper protein (cynomolgus monkey)
T2 construct: also called cyTCR-zipper protein; cynoTCR zipper
T2 TCR alpha: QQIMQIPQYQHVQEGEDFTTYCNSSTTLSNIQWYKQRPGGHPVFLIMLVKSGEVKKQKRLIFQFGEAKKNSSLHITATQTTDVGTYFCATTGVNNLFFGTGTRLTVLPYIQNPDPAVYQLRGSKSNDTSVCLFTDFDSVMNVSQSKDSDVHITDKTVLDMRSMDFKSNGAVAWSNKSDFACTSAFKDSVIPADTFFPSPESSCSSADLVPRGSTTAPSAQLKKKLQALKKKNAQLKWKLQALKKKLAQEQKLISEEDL
T2 TCR beta: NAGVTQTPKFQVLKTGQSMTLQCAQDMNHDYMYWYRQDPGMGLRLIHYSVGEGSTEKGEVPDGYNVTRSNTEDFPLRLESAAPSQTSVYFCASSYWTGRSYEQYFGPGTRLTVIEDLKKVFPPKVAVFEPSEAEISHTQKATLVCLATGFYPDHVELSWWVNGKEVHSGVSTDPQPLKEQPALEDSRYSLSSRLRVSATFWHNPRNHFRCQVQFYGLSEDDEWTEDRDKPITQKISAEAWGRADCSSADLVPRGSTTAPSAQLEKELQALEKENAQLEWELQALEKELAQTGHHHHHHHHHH

T3: Cynomolgus TCR(AEA41865/AEA41866)-zipper protein (cynomolgus monkey)
T3 construct: also called cyTCR-zipper protein; cynoTCR zipper
T3 TCR alpha: T2 TCR alpha
T3 TCR beta: T2 TCR beta

B1: T017000630 (bispecific antibody)
chain: DVQLVESGGGLVQAGGSLRLSCAASGITSKINDMGWYRQTPGNYREWVASITATGTTNYRDSVKGRFTISRDNAKSTVYLQMNSLKPEDTTVYYCNTFPPISNFWGQGTLVTVSSGGGGSGGGGSGGGGSGGGGSGGGGSGGGGSGGGGSEVQLVESGGGVVQPGGSLRLSCVASWDVHKINFYGWYRQAPGKEREKVAHISIGDQTDYADSAKGRFTISRDESKNTVYLQMNSLRPEDTALYYCRALSKIWPYDYWGQGTLVTVSSA
notes: also called A0110056A10(E1D)-35GS-T0170056G05(L11V, G26W, L34Y, M77T, K83R, V89L, F91Y, F95L, R97K, Y99W)-A
B2: T017000643 (bispecific antibody)
chain: B1 chain with G185T
notes: also called A0110056A10(E1D)-35GS-T0170056G05(L11V, G26W, L34Y, G35T, M77T, K83R, V89L, F91Y, F95L, R97K, Y99W)-A
B3: T017000640 (bispecific antibody)
chain: B1 chain with G185T, K250R
notes: also called A0110056A10(E1D)-35GS-T0170056G05(L11V, G26W, L34Y, G35T, M77T, K83R, V89L, F91Y, F95L, Y99W)-A
B4: T017000631 (bispecific antibody)
chain: B1 chain with W176Y
notes: also called A0110056A10(E1D)-35GS-T0170056G05(L11V, G26Y, L34Y, M77T, K83R, V89L, F91Y, F95L, R97K, Y99W)-A
B5: T017000627 (bispecific antibody)
chain: DVQLVESGGGVVQPGGSLRLSCVASWDVHKINFYGWYRQAPGKEREKVAHISIGDQTDYADSAKGRFTISRDESKNTVYLQMNSLRPEDTALYYCRALSKIWPYDYWGQGTLVTVSSGGGGSGGGGSGGGGSGGGGSGGGGSGGGGSGGGGSEVQLVESGGGLVQAGGSLRLSCAASGITSKINDMGWYRQTPGNYREWVASITATGTTNYRDSVKGRFTISRDNAKSTVYLQMNSLKPEDTTVYYCNTFPPISNFWGQGTLVTVSSA
B6: T017000636 (bispecific antibody)
chain: B5 chain with K30Q, K100R
B7: T017000686 (VHH, not shown: small tags and cut ends)
VHH: EVQLVESGGGVVQPGGSLRLSCVASGSVHKINFYGWYRQAPGKEREKVAHISIGDQTDYADSAKGRFTISRDESKNTVYLQMNSLRPEDTALYYCRALSRIWPYDYWGQGTLVTVSS
B8: T017000638 (VHH, not shown: small tags and cut ends)
VHH: B7 VHH with G26W, S27D, G35T
B9: T017000682 (VHH, not shown: small tags and cut ends)
VHH: B7 VHH with S27A
B10: T017000690 (VHH, not shown: small tags and cut ends)
VHH: B7 VHH with G26W, S27E
B11: T017000234 (VHH)
VHH: B7 VHH with S27D, Y34L, H50M, T77M, Y94F, L98F, W102Y
B12: T017000245 (VHH)
VHH: B7 VHH with S27D, Y34L, G54A, T77M, Y94F, L98F, W102Y
B13: T017000241 (VHH)
VHH: B7 VHH with S27D, Y34L, D58N, T77M, Y94F, L98F, W102Y
B14: T017000254 (VHH)
VHH: B7 VHH with S27D, Y34L, Q56R, T77M, Y94F, L98F, W102Y
B15: T017000238 (VHH)
VHH: B7 VHH with S27D, Y34L, Q56E, T77M, Y94F, L98F, W102Y
B16: T017000235 (VHH)
VHH: B7 VHH with S27D, Y34L, Q56H, T77M, Y94F, L98F, W102Y
B17: T017000258 (VHH)
VHH: B7 VHH with S27D, Y34L, D55E, T77M, Y94F, L98F, W102Y
B18: T017000249 (VHH)
VHH: B7 VHH with S27D, Y34L, Q56V, T77M, Y94F, L98F, W102Y
B19: T017000283 (VHH)
VHH: B7 VHH with S27D, Y34L, T77M, Y94F, L98F, R100S, W102Y
B20: T017000291 (VHH)
VHH: B7 VHH with S27D, Y34L, T77M, Y94F, L98F
B21: T017000312 (VHH)
VHH: B7 VHH with S27D, Y34L, T77M, Y94F, W102Y
B22: T017000287 (VHH)
VHH: B7 VHH with S27D, Y34L, T77M, Y94F, L98F, W102Y, D105Q
B23: T017000302 (VHH)
VHH: B7 VHH with S27D, Y34L, T77M, Y94F, L98F, W102Y, D105T
B24: T017000301 (VHH)
VHH: B7 VHH with S27D, Y34L, T77M, Y94F, L98F, W102Y, D105A
B25: T017000285 (VHH)
VHH: B7 VHH with S27D, Y34L, T77M, Y94F, L98F, W102Y, D105L
B26: T017000281 (VHH)
VHH: B7 VHH with S27D, Y34L, T77M, Y94F, L98M, W102Y
B27: T017000278 (VHH)
VHH: B7 VHH with S27D, Y34L, T77M, Y94F, L98F, W102Y, D105S
B28: T017000294 (VHH)
VHH: B7 VHH with S27D, Y34L, T77M, Y94F, L98F, W102Y, Y106W
B29: T017000290 (VHH)
VHH: B7 VHH with S27D, Y34L, T77M, Y94F, L98F, R100K, W102Y

Changes are numbered by the printed parent chain. Numbers in names are those of the source.

The first test has as its target T1, Human T cell receptor on human primary …. Description: cell-based or functional assay.
Consider B1, for which the “% Lysis, T cell mediated MOLM-13 cell killing, human primary T cells, E:T 10:1” value (shortened to “% Lysis … human primary T cells, E:T 10:1”) turned out to be 0%.

As for B2, the “% Lysis … human primary T cells, E:T 10:1” value was 0%. Take B3: the “% Lysis … human primary T cells, E:T 10:1” value came out at 37% and the “EC50 (M), T cell mediated MOLM-13 cell killing, human primary T cells, E:T 10:1” value (shortened to “EC50 (M) … human primary T cells, E:T 10:1”) was 5.7e-10 M. Regarding B4, the “% Lysis … human primary T cells, E:T 10:1” value worked out at 0%. As for B5, the “% Lysis … human primary T cells, E:T 10:1” value amounted to 36% and the “EC50 (M) … human primary T cells, E:T 10:1” value worked out at 2.4e-10 M. With B6, the “% Lysis … human primary T cells, E:T 10:1” value came to 36% and the “EC50 (M) … human primary T cells, E:T 10:1” value is 6.6e-11 M.

A further test deals with T2, Cynomolgus …. Description: SPR, ProteOn XPR36, 25 C, immobilised TCR-zipper. For orientation: Surface plasmon resonance follows binding to a sensor surface in real time, without labels.
Description: HuTCR-zipper or cyTCR-zipper protein was immobilized on a GLC sensor chip (between 100-200 RU) via amine coupling chemistry, using EDC/NHS for activation of the carboxyl groups on the chip surface (running buffer: HBS-EP+, pH7.4). […] Processed sensorgrams were fitted with the Langmuir model (1:1 interaction) using ProteOn Manager 3.1.0 (Version 3.1.0.6) software.
For B1, the affinity, expressed as Kd, was 240 nM. B2: the Kd (commonly the equilibrium constant for the complex coming apart) stood at 900 nM. Consider B3, for which the Kd was found to be 15000 nM.

In turn, B4 returned a Kd of 290 nM. For the molecule B5, the affinity, expressed as Kd, was 5.2 nM. For the molecule B6, the Kd is 29 nM.

A further test has as its target T1, Human T cell receptor on human primary …. The experiment in a line: flow cytometry, human primary T cells. A general note: A flow cytometer gives signals particle by particle.
Turning to B7, the EC50 – broadly, the concentration giving half of the maximal effect – is 55 nM.

On to B8, for which the midpoint of the response, the EC50, lay at 66 nM. Take B9: a half-maximal effect (EC50) was put at 58 nM. As to B10, the EC50 came out at 66 nM.

The target in another test is T3, Cynomolgus …. The experiment in a line: SPR ProteOn off-rate screen.
Description: (§1) Unique ISVD clones, i.e. clones with a unique sequence, were subsequently selected and screened to determine their off-rate. To this purpose, the ISVD containing periplasmic extracts were screened on huTCR-zipper and cyTCR-zipper protein by SPR on a ProteOn XPR36 instrument. The zipper proteins were immobilized on a GLC sensor chip (between 4300 and 5100RU) via amine coupling chemistry, using EDC/sulfo-NHS for activation of the carboxyl groups on the chip surface (running buffer: HBS-EP+, pH7.4). Periplasmic extracts were injected at 1/10 dilution for 2 min (at a flow rate of 45 μL/min) and dissociation was followed for 900 s. A pulse of 100 s of 3 M MgCl2 at 45 μL/min was used for regeneration. […] Processed sensorgrams were fitted with the Langmuir model (1:1 interaction) using ProteOn Manager 3.1.0 (Version 3.1.0.6) software.
As to B11, the koff (usually the rate constant with which the complex falls apart) came out at 0.0118 s⁻¹. B12 displayed a koff of 0.00936 s⁻¹.

Take B13: the koff came to 0.0167 s⁻¹. The molecule B14 had a koff of 0.0118 s⁻¹. In turn, B15 displayed a koff of 0.00957 s⁻¹. As to B16, the off-rate (koff) turned out to be 0.011 s⁻¹. B17 gave a koff of 0.0107 s⁻¹. On to B18, for which the koff turned out to be 0.00939 s⁻¹.

In another test the target is Cynomolgus T cell receptor on cynomolgus primary T cells (cynomolgus monkey). The experiment in a line: cell-based or functional assay.
In the case of B1, the “EC50 (M), T cell mediated MOLM-13 cell killing, cynomolgus primary T cells, E:T 10:1” value (from here on “EC50 (M) … cynomolgus primary T cells, E:T 10:1”) came out at 4.5e-10 M. Consider B2, for which the “% Lysis, T cell mediated MOLM-13 cell killing, cynomolgus primary T cells, E:T 10:1” value (from here on “% Lysis … cynomolgus primary T cells, E:T 10:1”) was 12% and the “EC50 (M) … cynomolgus primary T cells, E:T 10:1” value amounted to 1.6e-10 M. Regarding B3, the “% Lysis … cynomolgus primary T cells, E:T 10:1” value was found to be 6%. On to B4, for which the “% Lysis … cynomolgus primary T cells, E:T 10:1” value stood at 35% and the “EC50 (M) … cynomolgus primary T cells, E:T 10:1” value worked out at 2e-10 M. Regarding B5, the “% Lysis … cynomolgus primary T cells, E:T 10:1” value worked out at 19% and the “EC50 (M) … cynomolgus primary T cells, E:T 10:1” value amounted to 3.8e-11 M. B6: the “% Lysis … cynomolgus primary T cells, E:T 10:1” value was 20% and the “EC50 (M) … cynomolgus primary T cells, E:T 10:1” value is 6.7e-11 M.

The target in the next test is T3, Cynomolgus …. The experiment in a line: SPR ProteOn off-rate screen. This is another data set of the same source.
Description: as §1
B19 showed a koff of 0.00559 s⁻¹.

Consider B20, for which the koff was 0.00672 s⁻¹. On the same count and under the same terms, as for B21, the figure is 0.0087 s⁻¹; as for B22, 0.0121 s⁻¹; as for B23, 0.0148 s⁻¹. Regarding B24, the koff came out at 0.0178 s⁻¹. On the same count and under the same terms, as for B25, the figure is 0.0216 s⁻¹; as for B26, 0.00555 s⁻¹; as for B27, 0.0162 s⁻¹. In the case of B28, the koff was 0.0151 s⁻¹. B29 displayed a koff of 0.00171 s⁻¹.

For the origin of these results see patent US20240092919A1 (Ablynx, published 2024).
